# Test results from FireProtDB (doi:10.1110/ps.03176803).
# B1: Guanyl-specific ribonuclease Sa, P05798 (parent)
# chain: DVSGTVCLSALPPEATDTLNLIASDGPFPYSQDGVVFQNRESVLPTQSYGYYHEYTVITPGARTRGTRRIITGEATQEDYYTGDHYATFSLIDQTC
# Variants of: B1
# Conditions: Kitasatospora aureofaciens, Thermal, DSC, reversible: yes (90-95%), structure 1RGG, whole UniProt chain shown
# [1] = pH 5.5, 55.6 °C, sodium acetate potassium chloride 0.01 M 0.05 M
# [2] = pH 5.5, sodium acetate potassium chloride 0.01 M 0.05 M
Variant,ddG of mutation (higher = less stable) [1] [kcal/mol],Tm [2] [°C],"change of melting temperature, mutant - wild type (higher = more stable) [2] [°C]",unfolding enthalpy (calorimetric) [2] [kcal/mol],unfolding enthalpy (van 't Hoff) [2] [kcal/mol],"ddG of mutation (higher = less stable) (pH 7, 49 °C, PIPES 0.03 M) [kcal/mol]","Tm (pH 7, PIPES 0.03 M) [°C]","change of melting temperature, mutant - wild type (higher = more stable) (pH 7, PIPES 0.03 M) [°C]","unfolding enthalpy (calorimetric) (pH 7, PIPES 0.03 M) [kcal/mol]","unfolding enthalpy (van 't Hoff) (pH 7, PIPES 0.03 M) [kcal/mol]","Tm (pH 7, PIPES 0.3 M) [°C]","change of melting temperature, mutant - wild type (higher = more stable) (pH 7, PIPES 0.3 M) [°C]","unfolding enthalpy (calorimetric) (pH 7, PIPES 0.3 M) [kcal/mol]","unfolding enthalpy (van 't Hoff) (pH 7, PIPES 0.3 M) [kcal/mol]"
DVSGTVCLSALPPEATDTLNLIASDGPFPYSQDGVVFQNRESVLPTQSYGYYHEYTVITPGARTAGTRRIITGEATQEDYYTGDHYATFSLIDQTC [R65A],1.3,51.1,-4.5,81,78,1,45.6,-3.4,81,90,–,–,–,–
DVSGTVCLSALPPEATDTLNLIASDGPFPYSQDGVVFANRESVLPTQSYGYYHEYTVITPGARTRGTRRIITGEATQEDYYTGDHYATFSLIDQTC [Q38A],-0.4,–,–,–,–,-1,52.5,3.5,109,110,–,–,–,–
DVSGTVCLSALPPEATDTLNLIASDGPFPYSQDGVVFQNRESVLPTQSYGYYHEYTVITPGARTRGTRRIITGKATQEDYYTGDHYATFSLIDQTC [E74K],-0.1,56,0.4,103,99,-0.9,–,–,–,–,52.1,3.1,101,113
DVSGTVCLSALPPEATDTLNLIASDGPFPYSQDGVVFQNRKSVLPTQSYGYYHEYTVITPGARTRGTRRIITGEATQEDYYTGDHYATFSLIDQTC [E41K],1.5,50.5,-5.1,97,101,0.7,46.5,-2.5,90,100,–,–,–,–
DVSGTVCLSALPPEATDTLNLIASDGPFPYSQDGVVFQNRESVLPTQSYGYYHQYTVITPGARTRGTRRIITGEATQEDYYTGDHYATFSLIDQTC [E54Q],2.3,–,–,–,–,1.7,43.1,-5.9,81,87,–,–,–,–
DVSGTVCLSALPPEATDTLNLIASDGPFPYSQDGVVFQNRESVLPTQSYGYYHEYTVITPGARTRGTRRIITGEATQEDYYTGDQYATFSLIDQTC [H85Q],0,55.5,-0.1,94,105,0,49.1,0.1,90,89,–,–,–,–
